Assay results as given in publication PMC10397247.

Assays:
Assay in all cases: two-hybrid library CCmax;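 further: natural log of median RNA to DNA barcode read ratio; higher means stronger binding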
4H656-AA = molecular target: T1, 4H656-AA; settings: mean of both orientations
T1 chain: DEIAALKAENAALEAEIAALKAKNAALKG

4H3709-AA = molecular target: T2, 4H3709-AA; settings: mean of both orientations
T2 chain: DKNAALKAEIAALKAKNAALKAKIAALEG

4H2742-AA = molecular target: T3, 4H2742-AA
T3 chain: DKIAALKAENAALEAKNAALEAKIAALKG

4H478-AA = molecular target: T4, 4H478-AA; settings: mean of both orientations
T4 chain: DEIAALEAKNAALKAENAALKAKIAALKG

4H3666-AA = molecular target: T5, 4H3666-AA; settings: mean of both orientations
T5 chain: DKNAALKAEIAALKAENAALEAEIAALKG

4H428-AA = molecular target: T6, 4H428-AA; settings: mean of both orientations
T6 chain: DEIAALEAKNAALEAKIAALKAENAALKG

4H3417-AA = molecular target: T7, 4H3417-AA; settings: mean of both orientations
T7 chain: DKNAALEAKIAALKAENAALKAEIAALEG

4H1391-AA = molecular target: T8, 4H1391-AA
T8 chain: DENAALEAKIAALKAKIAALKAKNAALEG

4H971-AA = molecular target: T9, 4H971-AA; settings: mean of both orientations
T9 chain: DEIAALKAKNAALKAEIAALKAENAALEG

4H3920-AA = molecular target: T10, 4H3920-AA; settings: mean of both orientations
T10 chain: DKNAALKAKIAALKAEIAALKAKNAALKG

4H497-AA = molecular target: T11, 4H497-AA; settings: mean of both orientations
T11 chain: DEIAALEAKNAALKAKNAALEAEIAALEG

4H2948-AA = molecular target: T12, 4H2948-AA; settings: mean of both orientations
T12 chain: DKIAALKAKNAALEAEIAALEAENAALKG

4H675-AA = molecular target: T13, 4H675-AA; settings: mean of both orientations
T13 chain: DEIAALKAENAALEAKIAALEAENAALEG

4H3591-AA = molecular target: T14, 4H3591-AA; settings: mean of both orientations
T14 chain: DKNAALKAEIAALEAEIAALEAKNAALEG

4H3102-AA = molecular target: T15, 4H3102-AA; settings: mean of both orientations
T15 chain: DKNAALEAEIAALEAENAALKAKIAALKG

4H1809-AA = molecular target: T16, 4H1809-AA; settings: mean of both orientations
T16 chain: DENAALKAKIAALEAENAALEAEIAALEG

4H1854-AA = molecular target: T17, 4H1854-AA; settings: mean of both orientations
T17 chain: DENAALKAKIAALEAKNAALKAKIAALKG

4H3446-AA = molecular target: T18, 4H3446-AA; settings: mean of both orientations
T18 chain: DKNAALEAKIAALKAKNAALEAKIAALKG

4H189-AA = molecular target: T19, 4H189-AA; settings: mean of both orientations
T19 chain: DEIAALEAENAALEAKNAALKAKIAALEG

4H2283-AA = molecular target: T20, 4H2283-AA; settings: mean of both orientations
T20 chain: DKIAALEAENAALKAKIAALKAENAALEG

4H2713-AA = molecular target: T21, 4H2713-AA; settings: mean of both orientations
T21 chain: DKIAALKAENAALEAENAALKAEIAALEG

4H3066-AA = molecular target: T22, 4H3066-AA; settings: mean of both orientations
T22 chain: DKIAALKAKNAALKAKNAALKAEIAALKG

4H3939-AA = molecular target: T23, 4H3939-AA; settings: mean of both orientations
T23 chain: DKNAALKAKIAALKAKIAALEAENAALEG

4H2248-AA = molecular target: T24, 4H2248-AA; settings: mean of both orientations
T24 chain: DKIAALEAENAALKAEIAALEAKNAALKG

4H391-AA = molecular target: T25, 4H391-AA; settings: mean of both orientations
T25 chain: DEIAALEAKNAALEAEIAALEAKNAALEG

4H3029-AA = molecular target: T26, 4H3029-AA; settings: mean of both orientations
T26 chain: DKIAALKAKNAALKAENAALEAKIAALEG

4H3628-AA = molecular target: T27, 4H3628-AA; settings: mean of both orientations
T27 chain: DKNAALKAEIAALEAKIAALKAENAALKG

4H2991-AA = molecular target: T28, 4H2991-AA; settings: mean of both orientations
T28 chain: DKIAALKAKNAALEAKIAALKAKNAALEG

4H146-AA = molecular target: T29, 4H146-AA; settings: mean of both orientations
T29 chain: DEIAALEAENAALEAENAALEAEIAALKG

4H3121-AA = molecular target: T30, 4H3121-AA; settings: mean of both orientations
T30 chain: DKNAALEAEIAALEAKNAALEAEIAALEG

4H2165-AA = molecular target: T31, 4H2165-AA; settings: mean of both orientations
T31 chain: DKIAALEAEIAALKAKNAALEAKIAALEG

4H2732-AA = molecular target: T32, 4H2732-AA; settings: mean of both orientations
T32 chain: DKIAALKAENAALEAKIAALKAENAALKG

4H2253-AA = molecular target: T33, 4H2253-AA; settings: mean of both orientations
T33 chain: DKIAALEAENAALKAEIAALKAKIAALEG

4H2343-AA = molecular target: T34, 4H2343-AA; settings: mean of both orientations
T34 chain: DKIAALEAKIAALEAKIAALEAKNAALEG

4H2592-AA = molecular target: T35, 4H2592-AA; settings: mean of both orientations
T35 chain: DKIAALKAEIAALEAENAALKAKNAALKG

4H249-AA = molecular target: T36, 4H249-AA; settings: mean of both orientations
T36 chain: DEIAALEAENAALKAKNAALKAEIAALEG

4H452-AA = molecular target: T37, 4H452-AA; settings: mean of both orientations
T37 chain: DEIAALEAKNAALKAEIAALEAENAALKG

4H1930-AA = molecular target: T38, 4H1930-AA
T38 chain: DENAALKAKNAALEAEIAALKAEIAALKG

4H2466-AA = molecular target: T39, 4H2466-AA; settings: mean of both orientations
T39 chain: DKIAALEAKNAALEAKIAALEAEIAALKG

4H3438-AA = molecular target: T40, 4H3438-AA; settings: mean of both orientations
T40 chain: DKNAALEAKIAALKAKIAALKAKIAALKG

4H2774-AA = molecular target: T41, 4H2774-AA; settings: mean of both orientations
T41 chain: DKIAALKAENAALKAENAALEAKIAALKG

GCN2_T = molecular target: GCN2_T
4H2124-AA = molecular target: T42, 4H2124-AA; settings: mean of both orientations
T42 chain: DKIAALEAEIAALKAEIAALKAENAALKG

4H3015-AA = molecular target: T43, 4H3015-AA; settings: mean of both orientations
T43 chain: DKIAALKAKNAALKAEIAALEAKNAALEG

4H_BCR = molecular target: T44, 4H_BCR; settings: mean of both orientations
T44 chain: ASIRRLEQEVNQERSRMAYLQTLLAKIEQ

4H347-AA = molecular target: T45, 4H347-AA; settings: mean of both orientations
T45 chain: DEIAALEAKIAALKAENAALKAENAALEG

4H2931-AA = molecular target: T46, 4H2931-AA; settings: mean of both orientations
T46 chain: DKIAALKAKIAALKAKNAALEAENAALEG

4H3073-AA = molecular target: T47, 4H3073-AA; settings: mean of both orientations
T47 chain: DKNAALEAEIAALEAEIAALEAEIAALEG

4H406-AA = molecular target: T48, 4H406-AA; settings: mean of both orientations
T48 chain: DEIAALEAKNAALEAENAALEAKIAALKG

4H56-AA = molecular target: T49, 4H56-AA; settings: mean of both orientations
T49 chain: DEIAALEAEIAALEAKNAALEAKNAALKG

4H_GCN4 = molecular target: 4H_GCN4
Chain of 4H_GCN4 (chain, as listed by the source): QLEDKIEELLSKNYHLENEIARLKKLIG

4H2512-AA = molecular target: T50, 4H2512-AA
T50 chain: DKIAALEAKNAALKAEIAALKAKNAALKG

4H3001-AA = molecular target: T51, 4H3001-AA; settings: mean of both orientations
T51 chain: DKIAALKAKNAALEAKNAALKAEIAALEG

4H_APH = molecular target: T52, 4H_APH
T52 chain: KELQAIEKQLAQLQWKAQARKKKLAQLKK

4H2330-AA = molecular target: T53, 4H2330-AA; settings: mean of both orientations
T53 chain: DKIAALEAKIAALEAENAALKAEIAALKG

B1: 4H1391-AA (peptide)
chain: DENAALEAKIAALKAKIAALKAKNAALEG
B1 was tested, and the interaction score (4H656-AA) was -1.09, the interaction score (4H3709-AA) was -1.44 and the interaction score (4H2742-AA) was -1.48. It also gave an interaction score (4H478-AA) of -1.53, an interaction score (4H3666-AA) of -1.8 and an interaction score (4H428-AA) of -1.77. It also gave an interaction score (4H3417-AA) of -1.93, an interaction score (4H1391-AA) of -0.77 and an interaction score (4H971-AA) of -1.37. The interaction score (4H3920-AA) was -0.296, the interaction score (4H497-AA) was -1.59 and the interaction score (4H2948-AA) was -1.19. For the same binder, the interaction score (4H675-AA) was -1.62, the interaction score (4H3591-AA) was 2.15 and the interaction score (4H3102-AA) was -1.1. The interaction score (4H1809-AA) was -0.868, the interaction score (4H1854-AA) was -1.81 and the interaction score (4H3446-AA) was -1.64. For the same binder, the interaction score (4H189-AA) was -1.54, the interaction score (4H2283-AA) was -1.61 and the interaction score (4H2713-AA) was -1.47. For the same binder, the interaction score (4H3066-AA) was -1.99, the interaction score (4H3939-AA) was -1.09 and the interaction score (4H2248-AA) was -1.32. For the same binder, the interaction score (4H391-AA) was -1.36, the interaction score (4H3029-AA) was -1.41 and the interaction score (4H3628-AA) was 0.211. It also gave an interaction score (4H2991-AA) of -2.12, an interaction score (4H146-AA) of -1.65 and an interaction score (4H3121-AA) of -1.32.

B2: 4H1930-AA (peptide)
chain: DENAALKAKNAALEAEIAALKAEIAALKG
Work on B2 yielded an interaction score (4H2165-AA) of -1.35, an interaction score (4H2732-AA) of -1.87 and an interaction score (4H2253-AA) of -1.35. For the same binder, the interaction score (4H2343-AA) was -1.34, the interaction score (4H2592-AA) was -1.46 and the interaction score (4H249-AA) was -1.82. It also gave an interaction score (4H452-AA) of -1.51, an interaction score (4H1930-AA) of 1.78 and an interaction score (4H2466-AA) of -1.3. For the same binder, the interaction score (4H3438-AA) was -1.3, the interaction score (4H2774-AA) was -1.57 and the interaction score (GCN2_T) was -1.22. For the same binder, the interaction score (4H2124-AA) was -1.14, the interaction score (4H3015-AA) was -1.72 and the interaction score (4H_BCR) was -1.93. For the same binder, the interaction score (4H347-AA) was -1.32, the interaction score (4H2931-AA) was -1.91 and the interaction score (4H3073-AA) was -0.77. It also gave an interaction score (4H406-AA) of -1.92, an interaction score (4H56-AA) of -2.31 and an interaction score (4H_GCN4) of -1.23. It also gave an interaction score (4H2512-AA) of -3.66, an interaction score (4H3001-AA) of -1.62 and an interaction score (4H_APH) of -1.06. The interaction score (4H2330-AA) was -1.7.
